Source: patent US20240076402A1, “HUMANIZED ANTI-LIV1 ANTIBODIES FOR THE TREATMENT OF BREAST CANCER” (Seagen Inc., priority 2017, published 2024)

Legend:
Type in all cases: in vivo, human
[1] = test system: women with LIV-1-positive, unresectable, locally advanced or metastatic breast cancer (LA/MBC); test: Phase 1 study of SGN-LIV1A: safety and tolerability
Experimental: (§1) This ongoing, phase 1 study evaluated safety, tolerability, pharmacokinetics, and anti-tumor activity of SGN-LIV1A (q3wks IV) in women with LIV-1-positive, unresectable, locally advanced or metastatic breast cancer (LA/MBC) (NCT01969643). Patients with measurable disease and >2 prior cytotoxic regimens for LA/MBC were eligible. Patients with ≥Grade 2 neuropathy were excluded. Response was assessed per RECIST v1.1; pts with stable disease (SD) or better could continue treatment until disease progression or intolerable toxicity. At completion of dose escalation in hormone receptor-positive/HER2-negative (HR+/HER2−) and triple-negative (TN) patients, expansion cohorts were opened to further evaluate safety and antitumor activity of monotherapy in TN patients. Tumor biopsies were evaluated for LIV1 expression.
At the completion of dose escalation, multiple expansion cohorts for SGN-LIV1A monotherapy (Part A) treatment were opened to enroll up to 15 patients each with specific breast cancer subtypes at a recommended dose level to further define the safety and antitumor activity. Following an analysis of safety and activity in the 2.0 mg/kg versus 2.5 mg/kg dose cohorts, the recommended phase 2 dose was determined to be 2.5 mg/kg (maximum dose of 200 mg per cycle)

[2] = test system: hormone receptor-positive/HER2-negative (HR+/HER2-) LIV-1-positive LA/MBC; test: Phase 1 study of SGN-LIV1A: anti-tumor activity per RECIST v1.1, HR+/HER2- patients; settings: 17 efficacy evaluable HR+/HER2- patients, dose escalation
Experimental: as §1

[3] = test system: triple-negative (TN) LIV-1-positive LA/MBC; test: Phase 1 study of SGN-LIV1A: anti-tumor activity per RECIST v1.1, triple-negative patients
Experimental: as §1

[4] = test system: patients with LIV-1-positive LA/MBC, weight greater than or equal to 80 kg; test: Phase 1 dose expansion continuation: safety of a total maximum dose of 250 mg per cycle, with or without GCSF; settings: 2.5 mg/kg, >=200 mg up to 250 mg per cycle
Experimental: This study is a continuation of the dose expansion cohort study for SGN-LIV1A monotherapy (Part A) of the phase 1 study described in Example 1, which includes data from 22 additional administrations of SGN-LIV1A (q3wks IV). Patients were as described in Example 1. These additional administrations were conducted to assess the safety of a total maximum dose of 250 mg per cycle. Patients were dosed at 2.5 mg/kg and each of these 22 additional administrations were greater than or equal to 200 mg per cycle due to the patients having a weight greater than or equal to 80 kg.

[5] = % of 69 patients, 0.5 to 2.8 mg/kg q3wks IV

SGN-LIV1A: anti-LIV-1 humanized antibody (hLIV22) conjugated to monomethyl auristatin E (MMAE) via a protease-cleavable valine-citrulline linker
febrile neutropenic events or neutropenia-associated SAEs ([1]; 2.0 mg/kg (N=26)): no febrile neutropenic events or neutropenia-associated SAEs | incidence of Grade 3 or higher neutropenia AEs ([1]; 2.5 mg/kg dose level of Part A (monotherapy)): 57% | febrile neutropenic events or neutropenia-associated SAEs ([1]; 2.5 mg/kg, doses <=200 mg (N=18)): no febrile neutropenic events or neutropenia-associated SAEs | patients experiencing SAEs associated with neutropenia ([1]; 2.5 mg/kg, doses >200 mg (N=11)): 5 of 11 | febrile neutropenia ([1]; 2.5 mg/kg, doses >200 mg (N=11), includes the one treatment related death due to sepsis): 2 of 11 | dose-limiting toxicities (DLTs) ([1]; 19 DLT-evaluable patients, doses of 0.5 to 2.8 mg/kg q3wks IV): No dose-limiting toxicities (DLTs) occurred | treatment-related deaths ([1]; 69 patients, total dose exceeded 200 mg per cycle, no other treatment-related deaths on-study): one treatment-related death due to sepsis | AEs >=Grade 3: anemia [1, 5]: 15% | AEs >=Grade 3: neutropenia [1, 5]: 25% | treatment-emergent AE: abdominal pain [1, 5]: 25% | treatment-emergent AE: alopecia [1, 5]: 36% | treatment-emergent AE: constipation [1, 5]: 30% | treatment-emergent AE: decreased appetite [1, 5]: 33% | treatment-emergent AE: diarrhea [1, 5]: 25% | treatment-emergent AE: fatigue [1, 5]: 59% | treatment-emergent AE: nausea [1, 5]: 51% | treatment-emergent AE: peripheral neuropathy [1, 5]: 44% | treatment-emergent AE: neutropenia ([1]; all grades, % of 69 patients, 0.5 to 2.8 mg/kg q3wks IV): 25% | patients who discontinued treatment due to AEs ([1]; of 69 patients): Seven | febrile neutropenia ([1]; of 69 patients, both had a total dose exceeding 200 mg per cycle): 2 patients | incidence of Grade 3 or higher neutropenia AEs ([1]; overall monotherapy study population): 39% | maximum tolerated dose ([1]; q3wks IV, not exceeded at the highest dose): ≥ 2.8 mg/kg | patients with SD>=24 wks [2]: one | disease control rate (DCR=CR+PR+SD) ([2]; 10 SD): 59% | confirmed PR rate ([3]; 44 efficacy evaluable TN patients): 21% | objective response rate (ORR) ([3]; 44 efficacy evaluable TN patients (dose escalation plus expansion cohorts), 14 PR): 32% | DCR ([3]; 44 efficacy evaluable TN patients, 14 PR, 14 SD): 64% | clinical benefit rate (CBR=CR+PR+SD>=24 weeks) ([3]; 44 efficacy evaluable TN patients, 16 patients): 36% | median PFS ([3]; TN patients, 95% CI: 6.1, 17.1): 11.3 weeks | administrations resulting in development of neutropenia ([4]; co-administered with GCSF, 7 administrations): none | administrations resulting in development of neutropenia ([4]; not co-administered with GCSF, 5 of 15 administrations): 33.3%
